Where no end group is shown, it is not given here.
Tests used:
[1] = target: Serum IgG autoantibodies of subjects with type 1 diabetes (human); assay: competitive ELISA, T1D serum pre-incubated with peptide, plate coated with oxidised insulin (Example 3)
[2] = target: Serum IgG autoantibodies of subjects with type 1 diabetes (human); assay: competitive ELISA, T1D serum pre-incubated with peptide, plate coated with oxidised insulin (FIG. 2B)

B1: oxPTM-INSP-6, peptide 6 oxidised in house (oxidant not specified at the place) (peptide)
peptide: ERGFFYTPKT
modifications: not fully specified (N-terminus); also: oxidised in house (CuCl2, H2O2, NaOCl), modified residues not defined
[1]
  % reduction of serum binding to oxidised whole insulin: 35 to 70%
[2]
  % reduction of serum binding to oxidised whole insulin: 35 to 75%
